Laboratory results from paper PMC8897276.
Where two headings read alike, the source gives them in different places.

Columns and labels:
[1] = biological target: A2Moo (ovomacroglobulin), the Xenopus laevis egg Alpha-2-Macroglobulin homolog (Xenopus laevis); assay: cryo-EM structure
[2] = biological target: A2Moo (ovomacroglobulin), the Xenopus laevis egg Alpha-2-Macroglobulin homolog (Xenopus laevis); assay: cryo-EM structure; remark: listed apart in the source

Substance: A2Moo (ovomacroglobulin), the Xenopus laevis egg Alpha-2-Macroglobulin homolog (from UniProt A0A8J1L4C4 1-1441) (natural protein)
- stoichiometry N [1]: 4
- stoichiometry N [2]: 4
